Measured values reported in publication PMC10858392 (Cell reports, 2023).

Tests used:
Test in all cases: ELISA
ubiquitin (in-house) = ubiquitin (in-house) (Homo sapiens, UniProt P0CG47)
[1] = target: lysozyme from chicken egg white (Gallus gallus, UniProt P00698)
human insulin = human insulin (Homo sapiens, UniProt P01308)
[2] = target: albumin from human serum, low endotoxin (Homo sapiens, UniProt P02768)

Measured: binding result

albumin from human serum, low endotoxin, sequence (P02768 25-609): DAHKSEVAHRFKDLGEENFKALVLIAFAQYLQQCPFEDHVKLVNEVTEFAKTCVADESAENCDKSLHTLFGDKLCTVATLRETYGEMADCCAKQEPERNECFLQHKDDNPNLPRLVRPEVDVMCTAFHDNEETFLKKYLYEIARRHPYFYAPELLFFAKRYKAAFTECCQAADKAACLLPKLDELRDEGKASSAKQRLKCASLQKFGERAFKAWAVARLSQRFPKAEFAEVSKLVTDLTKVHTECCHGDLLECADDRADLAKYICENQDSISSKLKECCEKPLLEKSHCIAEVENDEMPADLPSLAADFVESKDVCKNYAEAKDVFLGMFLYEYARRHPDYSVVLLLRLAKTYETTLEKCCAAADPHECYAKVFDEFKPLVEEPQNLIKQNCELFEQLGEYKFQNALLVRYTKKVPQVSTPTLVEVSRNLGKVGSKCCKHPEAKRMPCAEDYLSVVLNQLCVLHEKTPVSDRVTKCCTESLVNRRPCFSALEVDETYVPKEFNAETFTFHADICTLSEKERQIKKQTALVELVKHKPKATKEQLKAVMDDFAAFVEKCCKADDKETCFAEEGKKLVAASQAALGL
human insulin, sequence (P01308 whole entry, looked up): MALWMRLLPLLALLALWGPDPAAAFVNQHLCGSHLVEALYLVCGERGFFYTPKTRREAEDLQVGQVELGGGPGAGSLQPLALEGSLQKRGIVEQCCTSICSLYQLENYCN
lysozyme from chicken egg white, sequence (P00698 19-147): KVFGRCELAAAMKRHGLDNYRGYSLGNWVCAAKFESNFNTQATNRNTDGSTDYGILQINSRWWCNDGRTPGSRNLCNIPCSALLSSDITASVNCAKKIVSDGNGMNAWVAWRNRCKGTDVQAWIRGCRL

B1: 43G10 mAb (polyreactive mouse IgA monoclonal antibody, full-length) (antibody, V domains shown)
VH: QVQLKQSGPGLVKPSQSLSLTCSVTGYSITSGFYWTWIRQFPGNKVEWMGYINYAGNNDYNPSLKDRISITRDTSKNQFFLKLNSVTSEDTATYYCTRGTGRIEYWGQGTSVTVSS
VL: DIKMTQSPSSLAVSVGEKVSMSCKSSQSLLYSYNQKNYLAWYQQAPGQSPKLLIYWASTRESGVPDRFTGSGSGTDFTLTISNVKTEDLAVYYCQQYHSHPLTFGQGTKVEIK
binds: ubiquitin (in-house) | [1] | human insulin | [2]

B2: 338E6 mAb (polyreactive mouse IgA monoclonal antibody, full-length) (antibody, V domains shown)
VH: EVKLEESGGDLVKPGGSLKLSCAASGFTFSSYGMSWVRQTPDKRLEWVATISSGGSYTYYPDSVKGRFTISRDNAKNTLYLQMSSLKSEDTAMYYCARRGFYFDYWGQGTTLTVSS
VL: ETTVTQSQKFMSTSVGDRVSVTCKASQNVGTNVAWYQQKPGQSPKALIYSASYRYSGVPDRFTGSGSGTDFTLTISNVQSEDLAEYFCQQYNSYPLTFGQGTKVEIK
binds: ubiquitin (in-house) | [1] | human insulin | [2]
